Where only a bound is given, the exact number is not on record here.

To fix the notation:
B1: GST-Rab5 wild-type [canine] / Myc3-iSH2-p110β (wild type) [bovine | human] (parent)
chain 1: LYEDYTRTSQEIQMKRTAIEAFNETIKIFEEQCQTQERYSKEYIEKFKREGNETEIQRIMHNYEKLKSRISEIVDSRRRLEEDLKKQAAEYREIDKRMNSIKGGGGGGGMCFSFIMPPAMADILDIWAVDSQIASDGSIPVDFLLPTGIYIQLEVPREATISYIKQMLWKQVHNYPMFNLLMDIDSYMFACVNQTAVYEELEDETRRLCDVRPFLPVLKLVTRSCDPGEKLDSKIGVLIGKGLHEFDSLKDPEVNEFRRKMRKFSEEKILSLVGLSWMDWLKQTYPPEHEPSIPENLEDKLYGGKLIVAVHFENCQDVFSFQVSPNMNPIKVNELAIQKRLTIHGKEDEVSPYDYVLQVSGRVEYVFGDHPLIQFQYIRNCVMNRALPHFILVECCKIKKMYEQEMIAIEAAINRNSSNLPLPLPPKKTRIISHVWENNNPFQIVLVKGNKLNTEETVKVHVRAGLFHGTELLCKTIVSSEVSGKNDHIWNEPLEFDINICDLPRMARLCFAVYAVLDKVKTKKSTKTINPSKYQTIRKAGKVHYPVAWVNTMVFDFKGQLRTGDIILHSWSSFPDELEEMLNPMGTVQTNPYTENATALHVKFPENKKQPYYYPPFDKIIEKAAEIASSDSANVSSRGGKKFLPVLKEILDRDPLSQLCENEMDLIWTLRQDCREIFPQSLPKLLLSIKWNKLEDVAQLQALLQIWPKLPPREALELLDFNYPDQYVREYAVGCLRQMSDEELSQYLLQLVQVLKYEPFLDCALSRFLLERALGNRRIGQFLFWHLRSEVHIPAVSVQFGVILEAYCRGSVGHMKVLSKQVEALNKLKTLNSLIKLNAVKLNRAKGKEAMHTCLKQSAYREALSDLQSPLNPCVILSELYVEKCKYMDSKMKPLWLVYNNKVFGEDSVGVIFKNGDDLRQDMLTLQMLRLMDLLWKEAGLDLRMLPYGCLATGDRSGLIEVVSTSETIADIQLNSSNVAAAAAFNKDALLNWLKEYNSGDDLDRAIEEFTLSCAGYCVASYVLGIGDRHSDNIMVKKTGQLFHIDFGHILGNFKSKFGIKRERVPFILTYDFIHVIQQGKTGNTEKFGRFRQCCEDAYLILRRHGNLFITLFALMLTAGLPELTSVKDIQYLKDSLALGKSEEEALKQFKQKFDEALRESWTTKVNWMAHTVRKDYRS
chain 2: ANRGATRPNGPNTGNKICQFKLVLLGESAVGKSSLVLRFVKGQFHEFQESTIGAAFLTQTVCLDDTTVKFEIWDTAGQERYHSLAPMYYRGAQAAIVVYDITNEESFARAKNWVKELQRQASPNIVIALSGNKADLANKRAVDFQEAQSYADDNSLLFMETSAKTSMNVNEIFMAIAKKLPKNEPQNPGANSARGRGVDLTEPTQPTRSQCCSN

The first assay covers variants of B1. The assay is described as follows: GST pull-down (summary table). Conditions: with Myc3-iSH2-p110β (wild type) [bovine | human]; n=10; parent: 100.
chain 2 L84A: the percent of parent was less than 25 % binding.

The same assay, now with this note: with Myc3-iSH2-p110β (wild type) [bovine | human]; n=4; parent: 100.
As for chain 2 I52A, the percent of parent is less than 25 % binding. In the case of chain 2 R90E, the percent of parent was less than 25 % binding.

The assay is the same for the next values; noted with them: with Myc3-iSH2-p110β (wild type) [bovine | human]; n=7; parent: 100.
As for chain 2 Y88A, the percent of parent was less than 25 % binding.

As for chain 2 Q78L, the percent of parent was less than 25 % binding.

The same assay, now with this note: with Myc3-iSH2-p110β (wild type) [bovine | human]; n=9; parent: 100.
As for chain 2 H82E, the percent of parent is less than 25 % binding. For the variant chain 2 E79R, the percent of parent was less than 25 % binding.

The assay is the same for the next values; noted with them: with Myc3-iSH2-p110β (wild type) [bovine | human]; n=5; parent: 100.
For chain 2 F56A, the percent of parent was less than 25 % binding.

Consider chain 2 W73A, for which the percent of parent was less than 25 % binding. Turning to chain 2 M87A, the percent of parent is less than 25 % binding.

Another assay covers variants of B1. As to the kind of experiment: GST pull-down, anti-Myc immunoblot quantification. The settings on record: with Myc3-iSH2-p110β (wild type) [bovine | human]; GST-Rab5 fusion proteins (10 µg) on glutathione Sepharose beads, GppCp-loaded; Myc-iSH2-p110β from transfected COS-1 lysates; parent: 100; read off a plot. A general note: Immunoblotting shows a protein as a band on a membrane.
Regarding chain 2 Q78L, the percent of parent is 20 % WT.

Variants of B1 are the subject of a further assay. As to the kind of experiment: GST pull-down (summary table). Conditions: with Myc3-iSH2-p110β (wild type) [bovine | human]; n=8; parent: 100.
Take chain 2 R80E: the percent of parent was less than 25 % binding.

Staying with this assay, now noted: with Myc3-iSH2-p110β (wild type) [bovine | human]; n=6; parent: 100.
chain 2 Y81A: the percent of parent was less than 25 % binding.

(Values after paper PMC5700975.)
